The text below walks through data of PMC8787478.

Common to all, as to assay: EMSA
Holding throughout (settings): EMSA: 10 mM Tris pH 7.5, 50 mM KCl, 1 mM EDTA, 1 mM DTT, 5% glycerol, 100 ug/mL BSA, 5 ug/mL poly(dI-dC), 0.25 nM probe, 25 C; footprinting: 10 mM Tris pH 8.0 …
A general note: Mobility shift assays separate free from complexed probe on a gel.

In data set [1] the target is T1, His6-AlgR (Pseudomonas aeruginosa PAK) (UniProt P26275).
T1 sequence: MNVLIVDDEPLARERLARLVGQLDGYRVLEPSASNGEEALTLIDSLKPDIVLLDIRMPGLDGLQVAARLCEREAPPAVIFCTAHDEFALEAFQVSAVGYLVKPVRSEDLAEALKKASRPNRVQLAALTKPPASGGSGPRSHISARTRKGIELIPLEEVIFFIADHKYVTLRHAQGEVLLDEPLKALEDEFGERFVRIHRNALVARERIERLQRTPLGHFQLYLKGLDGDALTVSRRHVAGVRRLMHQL

Data set [2] concerns the target T2, Vfr (Pseudomonas aeruginosa) (UniProt P55222).
T2 sequence: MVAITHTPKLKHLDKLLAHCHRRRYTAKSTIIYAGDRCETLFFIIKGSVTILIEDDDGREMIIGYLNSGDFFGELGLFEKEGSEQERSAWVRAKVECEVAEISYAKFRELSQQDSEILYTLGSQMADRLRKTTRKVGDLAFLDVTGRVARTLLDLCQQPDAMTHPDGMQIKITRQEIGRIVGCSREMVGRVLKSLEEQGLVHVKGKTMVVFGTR

The target of data set [3] is T3, Vfr;His6-AlgR (Pseudomonas aeruginosa;Pseudomonas aeruginosa PAK) (UniProt P55222+P26275).
T3 sequence 1: T2 sequence
T3 sequence 2: T1 sequence

Data set [4] has as its system His6-AlgR (Pseudomonas aeruginosa PAK).

Take “GCATACCGTTGCCTGGCAACTGATCCTCAACCGGCAGGGCCGGCTCCGTACCGCGAGCGCCAGGGAGAACCGGGAGAAACGTGAGCTATGCAGCACTTCCGGATGATCATGGACCAGTTGTCCTGCCCCACGGGCCGACCGTCAACGACCGCAAGACGCTCCCAGGCCCGTTTGGCATGCTTTCCAGGCGTAGAC (double strand) [PfimU WT]”: the binding result in data set [1], in data set [2] and in data set [3] was “binds” in each case.

As for “GTACGGGCGAAATAAAGCACCGAAATGCCATCTGCCGCAAAAAACCGCGAAACAGCGCTCGTTCCGGCTTCGTCGACGAGCCGCCGGTTTTTCCTCCCGGCCAGTAATCATCGTTGCCCTTTGCCCGTCACGCAGGCCGCGCG (double strand) [PalgZ VBS1 mutant]”, the binding result in data set [2] was “binds more weakly”.

Take “GTACGGGCGAAATAAAGCACCGAAATGTCATCTGCCAAATCAAACCACAGAACAGCGATACTTCCGGCTTCGTCGACGAGCCGCCGGTTTTTCCTCCCGGCCAGTAATCATCGTTGCCCTTTGCCCGTCACGCAGGCCGCGCG (double strand) [PalgZ VBS1-2-3 mutant]”: the binding entry in data set [2] was “no binding”.

Regarding “GTACGGGCGAAATAAAGCACCGAAATGTCATCTGCCAAATCAAACCACAGAACAGCGATACTTCCGGCTTCGTCGACGAGCCGCCGGTTTTTCCTCCCGGCCTGCTATCATCGTCGCACTTTGCCCGTCACGCAGGCCGCGCG (double strand) [PalgZ VBS2-3 mutant]”, the binding result in data set [2] is on record as “binds more weakly”.

For the substance “GTACGGGCGAAATAAAGCACCGAAATGTCATCTGCCAAATCAAACCGCGAAACAGCGCTCGTTCCGGCTTCGTCGACGAGCCGCCGGTTTTTCCTCCCGGCCAGTAATCATCGTTGCCCTTTGCCCGTCACGCAGGCCGCGCG (double strand) [PalgZ VBS1-3 mutant (VBS1 and VBS3)]”, the binding result in data set [2] was “binds more weakly”.

As to “GTACGGGCGAAATAAAGCACCGAAATGTCATCTGCCAAATCAAACCGCGAAACAGCGCTCGTTCCGGCTTCGTCGACGAGCCGCCGGTTTTTCCTCCCGGCCTGCTATCATCGTCGCACTTTGCCCGTCACGCAGGCCGCGCG (double strand) [PalgZ VBS3 mutant]”, the binding result in data set [2] is recorded as “binds”.

As to PfimU WT, in data set [4], the K half is > 351 nM.
